This note sets out measurements from patent US20260098096A1 (MONASH UNIVERSITY, published 2026).

The target in one test is T1, Human CCR8 (human, UniProt P51685 1-355).
T1 construct: Expressed on transfected CHO-Flpn or L1.2 cells; also called hCCR8; C-C chemokine receptor type 8
As to the kind of experiment: flow cytometry on hCCR8-L1.2 transfected cells.

In another test the target is T2, Mouse CCR8 (mouse, UniProt P56484 1-353).
T2 construct: Expressed on transfected CHO-Flpn or L1.2 cells; also called mCCR8
T2 sequence: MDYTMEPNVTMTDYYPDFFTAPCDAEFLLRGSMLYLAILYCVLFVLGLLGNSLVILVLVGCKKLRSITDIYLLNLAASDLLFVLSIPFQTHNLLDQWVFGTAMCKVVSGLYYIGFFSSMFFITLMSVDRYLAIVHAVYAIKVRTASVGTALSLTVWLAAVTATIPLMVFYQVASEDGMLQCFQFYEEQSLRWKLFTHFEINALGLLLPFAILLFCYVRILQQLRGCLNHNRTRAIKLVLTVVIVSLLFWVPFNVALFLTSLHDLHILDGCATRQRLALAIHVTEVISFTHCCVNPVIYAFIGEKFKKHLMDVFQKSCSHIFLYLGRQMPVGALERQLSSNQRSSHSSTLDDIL
Briefly: flow cytometry on transfected CHO-Flpn cells. (A flow cytometer gives signals particle by particle.)

A further test addresses T3, hCCR8_172-173 YQ-AA (human, UniProt P51685 1-355).
T3 construct: also called Mut 172-173
As to the kind of experiment: epitope mapping on transfected cells.

The target of a further test is T4, hCCR8_174-175 VA-AG (human, UniProt P51685 1-355).
T4 construct: also called Mut 174-175
T4 sequence (P51685 whole entry V174A/A175G): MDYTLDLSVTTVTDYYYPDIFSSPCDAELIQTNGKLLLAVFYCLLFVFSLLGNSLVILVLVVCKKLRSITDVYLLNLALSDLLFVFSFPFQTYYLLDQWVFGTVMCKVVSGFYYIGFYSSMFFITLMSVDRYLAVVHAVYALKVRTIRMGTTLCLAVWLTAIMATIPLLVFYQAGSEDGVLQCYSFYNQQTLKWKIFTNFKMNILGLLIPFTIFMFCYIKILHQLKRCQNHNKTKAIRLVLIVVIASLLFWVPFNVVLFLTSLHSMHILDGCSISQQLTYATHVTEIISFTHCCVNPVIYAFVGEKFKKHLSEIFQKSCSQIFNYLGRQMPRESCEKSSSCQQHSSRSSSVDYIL
As to the kind of experiment: epitope mapping on transfected cells.

For the next test, the target named is T5, human CCR6 (human, UniProt P51684 1-374).
T5 construct: whole, on cells
T5 sequence (looked up): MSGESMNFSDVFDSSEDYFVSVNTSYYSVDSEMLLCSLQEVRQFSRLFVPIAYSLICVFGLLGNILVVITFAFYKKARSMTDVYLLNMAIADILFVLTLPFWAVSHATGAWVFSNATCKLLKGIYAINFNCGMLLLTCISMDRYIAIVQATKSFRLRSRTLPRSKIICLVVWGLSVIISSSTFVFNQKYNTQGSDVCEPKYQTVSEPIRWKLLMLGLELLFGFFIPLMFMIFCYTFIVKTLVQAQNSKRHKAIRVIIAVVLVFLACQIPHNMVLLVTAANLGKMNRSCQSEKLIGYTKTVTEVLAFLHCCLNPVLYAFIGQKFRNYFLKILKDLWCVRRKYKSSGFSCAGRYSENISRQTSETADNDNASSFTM
As to the kind of experiment: flow cytometry on transfected L1.2 cells.

Another test concerns the target T6, human CCR10 (human, UniProt P46092 1-362).
T6 construct: whole, on cells
T6 sequence (looked up): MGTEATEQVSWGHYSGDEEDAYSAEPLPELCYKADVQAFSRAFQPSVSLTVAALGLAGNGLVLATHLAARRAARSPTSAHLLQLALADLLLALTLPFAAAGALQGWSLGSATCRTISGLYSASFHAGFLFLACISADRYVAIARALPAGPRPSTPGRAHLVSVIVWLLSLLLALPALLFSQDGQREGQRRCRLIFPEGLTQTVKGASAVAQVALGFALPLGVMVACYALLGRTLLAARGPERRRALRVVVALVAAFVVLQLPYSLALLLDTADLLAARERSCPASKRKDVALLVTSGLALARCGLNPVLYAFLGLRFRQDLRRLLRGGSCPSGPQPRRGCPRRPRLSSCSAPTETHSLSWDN
As to the kind of experiment: flow cytometry on transfected L1.2 cells.

The next test deals with T7, human CCR7 (human, UniProt P32248 25-378).
T7 construct: whole, on cells
T7 sequence (looked up): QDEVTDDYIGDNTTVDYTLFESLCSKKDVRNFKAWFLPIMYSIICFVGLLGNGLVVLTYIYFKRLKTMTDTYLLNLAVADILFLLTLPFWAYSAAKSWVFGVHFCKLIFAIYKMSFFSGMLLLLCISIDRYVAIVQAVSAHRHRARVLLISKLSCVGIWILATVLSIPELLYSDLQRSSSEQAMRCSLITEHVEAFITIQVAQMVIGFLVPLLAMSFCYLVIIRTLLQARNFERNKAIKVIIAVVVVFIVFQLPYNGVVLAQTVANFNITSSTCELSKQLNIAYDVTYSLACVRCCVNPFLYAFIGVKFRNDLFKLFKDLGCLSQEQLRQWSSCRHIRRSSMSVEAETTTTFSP
Briefly: flow cytometry on transfected L1.2 cells.

In a further test the target is T8, human CCR3 (human, UniProt P51677 1-355).
T8 construct: whole, on cells
T8 sequence (looked up): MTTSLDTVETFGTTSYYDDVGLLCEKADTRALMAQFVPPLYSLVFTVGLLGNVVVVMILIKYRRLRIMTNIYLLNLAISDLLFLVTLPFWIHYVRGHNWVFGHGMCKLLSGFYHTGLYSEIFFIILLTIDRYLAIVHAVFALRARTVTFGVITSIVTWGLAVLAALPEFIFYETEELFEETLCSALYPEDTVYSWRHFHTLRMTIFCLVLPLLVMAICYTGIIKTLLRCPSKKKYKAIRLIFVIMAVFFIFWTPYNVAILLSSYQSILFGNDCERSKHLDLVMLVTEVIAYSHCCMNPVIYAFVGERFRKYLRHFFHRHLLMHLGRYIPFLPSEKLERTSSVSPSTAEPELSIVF
Briefly: flow cytometry on transfected L1.2 cells.

The next test concerns the target T9, Cynomolgus CCR8 (cynomolgus monkey, UniProt O97665 1-356 (rhesus entry)).
T9 construct: also called cyno CCR8; cynomolgus monkey CCR8
Briefly: flow cytometry on HEK293T cells transfected with cyno CCR8. The text has this: FIG. 2. Reactivity of 2H8 antibody and other anti-hCCR8 antibodies towards Cyno CCR8. HEK293T cells were transfected with plasmid coding for cynomolgus monkey CCR8 and stained with various anti-hCCR8 antibodies (blue) or isotype control (red).

T1 sequence (P51685 whole entry): as the sequence (P51685 whole entry V174A/A175G) above, with A174V, G175A counted along it
T9 sequence (O97665 other isoform, or with tags, fused parts or gaps): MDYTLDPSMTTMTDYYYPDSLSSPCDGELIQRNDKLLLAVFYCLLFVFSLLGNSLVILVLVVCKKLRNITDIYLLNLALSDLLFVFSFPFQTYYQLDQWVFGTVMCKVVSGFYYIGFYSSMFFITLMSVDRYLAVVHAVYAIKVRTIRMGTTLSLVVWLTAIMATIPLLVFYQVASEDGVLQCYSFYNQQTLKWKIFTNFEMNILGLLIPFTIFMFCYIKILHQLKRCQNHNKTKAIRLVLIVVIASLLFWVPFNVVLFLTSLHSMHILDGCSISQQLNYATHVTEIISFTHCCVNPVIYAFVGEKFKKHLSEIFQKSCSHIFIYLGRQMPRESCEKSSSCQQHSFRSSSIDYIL
T3 sequence (P51685 whole entry Y172A/Q173A): as the sequence (P51685 whole entry V174A/A175G) above, with Y172A, Q173A, A174V, G175A counted along it

B1: Chimeric 2H8 (antibody, human IgG1, kappa, V domains shown)
VH: EVQLQQSGPELVKPGASVKMSCKASGYTFTDYNMHWVKQSHGKSLEWIGYVNPNNGGTSYNQKFKGKATLTVNKSSSTAYMELRSLTSEDSAVYYCARWVLRRNFAYWGQGTLVTVSA
VL: DIVMTQSHKFMSTSVGDRVSITCKASQDVNTAVAWYQQKPGQSPKLLIYWASTRHTGVPDRFTGSGSGTDYTLTISSVQAEDLALYYCQQHYRNPYTFGGGTKLEIKR
notes: also called Chimeric 2H8-B4; chimeric 2H8 B4 (parental)
In general, EC50 refers to the concentration giving half of the maximal effect. A lower EC50 goes with an effect from little substance. Molecule B1 returned an EC50 with Human CCR8 of 2.1 nM.

B2: 2H8 anti-m/hCCR8 antibody (mouse hybridoma clone, isotype IgG2b) (antibody, V domains shown)
VH: B1 VH
VL: DIVMTQSHKFMSTSVGDRVSITCKASQDVNTAVAWYQQKPGQSPKLLIYWASTRHTGVPDRFTGSGSGTDYTLTISSVQAEDLALYYCQQHYRNPYTFGGGTKLEIK
notes: Murine antibody from a mouse immunised with mouse CCR8 L1.2 cells; the mouse constant regions are not; also called 2H8-B4
For the molecule B2, the binding result with Mouse CCR8 is given as “binds”; with hCCR8_172-173 YQ-AA, “binds”; with hCCR8_174-175 VA-AG, “binds”; with human CCR6 it was “no binding”; with human CCR10, “no binding”; with human CCR7, “no binding”. Further, the binding result is “no binding” in the test with human CCR3 and “binds” in the test with Cynomolgus CCR8.

B3: Humanised 2H8 (antibody, V domains shown)
VH: QVQLVQSGAEVKKPGASVKVSCKASGYTFTDYNMHWVRQAPGQGLEWIGYVNPNNGGTSYNQKFKGKATLTVDKSISTAYMELSRLRSDDTAVYYCARWVLRRNFAYWGQGTLVTVSS
VL: DIQMTQSPSSLSASVGDRVTITCKASQDVNTAVAWYQQKPGKAPKLLIYWASTRHTGVPSRFSGSGSGTDFTLTISSLQPEDFATYYCQQHYRNPYTFGQGTKLEIK
notes: also called Humanized 2H8-B4; h2H8
Turning to B3, the EC50 in the test with Human CCR8 was 2.1 nM.
